Laboratory results published in patent US20240343803A1 (SHANDONG SIMCERE BIOPHARMACEUTICAL, published 2024).
Where “and” joins values, the source holds several entries; their conditions need not be identical. Equal values may be shown once.

What was measured:
[1] = target: T1, human PVRIG on FlpinCHO-PVRIG cells (human, UniProt Q6DKI7 41-326); assay: FACS, FlpinCHO-hPVRIG cells
T1 construct: whole, on cells; also called FlpinCHO-hPVRIG; FlpinCHO-human PVRIG
T1 sequence (looked up): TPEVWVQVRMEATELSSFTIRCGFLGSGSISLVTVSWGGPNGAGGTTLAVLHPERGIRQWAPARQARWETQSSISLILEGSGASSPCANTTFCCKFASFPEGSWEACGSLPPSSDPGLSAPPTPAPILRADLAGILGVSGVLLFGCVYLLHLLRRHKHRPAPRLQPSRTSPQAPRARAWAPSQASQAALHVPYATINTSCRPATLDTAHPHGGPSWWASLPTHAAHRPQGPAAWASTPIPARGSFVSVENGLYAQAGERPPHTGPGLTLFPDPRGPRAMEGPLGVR
Method: (§1) CHO-K1 stable cells ([…]-61™) transfected with human or cynomolgus monkey PVRIG high expression plasmids were named FlpinCHO-hPVRIG and FlpinCHO-cynoPVRIG. […] After discarding the cell culture medium, the cells were rinsed with PBS and digested for 8-10 minutes by adding 1 mL Versene (Gibico, 15040-066). The Ham's F12 (Gibico, 21127-022) complete medium containing 10% FBS was then added to terminate the digestion and acquire cell suspension. After cell counting, an appropriate amount of cell suspension was centrifuged at 350×g to remove the supernatant, washed twice with PBS, stained with Zombie violet (Biolegend, 423114) and incubated at room temperature for 20 minutes. After incubation, the cells were added with staining buffer (2% FBS+PBS) to stop staining, centrifuged at 350×g to remove the supernatant, washed twice and resuspended with staining buffer to a density of 2×10⁶ cells/mL. The cells were plated into a 96-well plate (50 μL of cell suspension per well) for further use. The antibodies were diluted from the highest concentration of 46 nM (two-fold concentration) with staining buffer by 3.3-fold serial dilution. The diluted antibodies were added to the well containing 50 μL of cell suspension. […] After staining, the cells were washed twice with staining buffer, finally resuspended with 200 μL staining buffer and analyzed by flow cytometry (BD, Canto II).

[2] = target: T2, human PVRIG-mFc protein (Acro, PVG-H5253) (human, UniProt Q6DKI7 41-171, limits assumed); assay: competition FACS; blocked: PVRIG-mFc binding to CHO-K1 CD112 cells
T2 construct: bought reagent; also called PVRIG-ECD-mFc
T2 sequence (looked up): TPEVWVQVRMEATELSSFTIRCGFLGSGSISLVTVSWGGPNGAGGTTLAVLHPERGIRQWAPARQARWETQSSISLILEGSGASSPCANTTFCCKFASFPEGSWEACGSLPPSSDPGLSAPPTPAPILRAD
Method: The Ham's F12 (Gibico, 21127-022) complete medium containing 10% FBS was then added to stop the digestion and acquire cell suspension. After counting with a cell counter (Beckman Coulter, Vi-CELL), an appropriate amount of cell suspension was centrifuged at 350×g to remove the supernatant, washed twice with PBS, stained with Zombie violet (Biolegend, 423114) and incubated at room temperature for 20 minutes. After incubation, the cells were added with staining buffer (2% FBS+PBS) to stop staining, centrifuged at 350×g to remove the supernatant, washed twice and resuspended with staining buffer to a density of 2×10⁶ cells/mL. The cells were plated into a 96-well plate (50 μL of cell suspension per well) for further use. A working solution of human PVRIG-mFc protein (Acro, PVG-H5253) prepared with staining buffer, 1 μg/mL (four-fold concentration), was added into a 96-well plate (50 μL PVRIG-mFc working solution per well). […] The diluted antibodies were added to the well containing 50 μL of PVRIG-mFc. The plate was placed on a microplate shaker at 400 rpm for 1 minute to fully mix the antibodies and PVRIG-mFc proteins, and then incubated at 4° C. for 30 minutes. After the incubation, the cell suspension prepared above (100 μL) was added into the wells, gently mixed with the pipette tip and incubated at 4° C. for 30 minutes. After the incubation, the cells were washed twice with staining buffer (200 μL per well) and centrifuged at 350×g for 5 minutes to discard the supernatant. The PE goat anti-mouse IgG Fc antibody (Biolegend, 405337) was diluted 250 times with staining buffer, added into the washed wells (100 μL per well), mixed well, and stained at 4° C. for 30 minutes. After staining, the cells were washed twice with staining buffer, finally resuspended with 200 μL staining buffer and analyzed by flow cytometry (BD, Canto II). The weaker the fluorescence signal, the stronger the ability of the antibodies blocks the binding of CHO-K1 human CD112 cells to the PVRIG-mFc protein.

[3] = target: T3, cynomolgus monkey PVRIG on FlpinCHO-cyno PVRIG cells (cynomolgus monkey, UniProt A0A2K5WVV8 41-322); assay: FACS, FlpinCHO cynomolgus monkey PVRIG cells
T3 construct: whole, on cells; also called FlpinCHO-cynomolgus monkey PVRIG
T3 sequence: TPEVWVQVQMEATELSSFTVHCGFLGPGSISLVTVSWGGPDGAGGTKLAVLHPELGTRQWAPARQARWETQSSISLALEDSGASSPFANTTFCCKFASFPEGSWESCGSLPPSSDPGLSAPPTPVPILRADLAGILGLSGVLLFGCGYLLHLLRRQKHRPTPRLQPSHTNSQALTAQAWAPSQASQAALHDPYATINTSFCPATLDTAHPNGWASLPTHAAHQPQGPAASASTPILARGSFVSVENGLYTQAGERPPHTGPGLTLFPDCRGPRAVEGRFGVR
Method: as §1

[4] = target: T4, Fusion protein of extracellular domain of human TIGIT and human IgG1 Fc fragment (human TIGIT ECD-hFc) (human); assay: blocking of TIGIT ECD-hFc binding to CHO-K1 CD155 cells
T4 construct: The entry includes the signal peptide (limits not recoverable) and the human IgG1 Fc
Method in brief: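 IC50 values come from inhibition curves in a cell-based ELISA using CHO-K1 CD155 cells. Antibodies premixed for 0.5 h with human TIGIT ECD-hFc (working concentration 30 ng/mL) were added to the fixed, blocked cells for 1.5-2 h at 37° C. Bound TIGIT was then detected with HRP secondary antibody and TMB at OD450 nm.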

[5] = target: T5, Fusion protein of extracellular domain of cynomolgus monkey TIGIT and mouse IgG2a Fc fragment (cynomolgus … (cynomolgus monkey)); assay: ELISA, cynomolgus monkey TIGIT ECD-mFc
T5 construct: The entry includes the signal peptide (limits not recoverable) and the mouse IgG2a Fc
Method in brief: (§2)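 Plates blocked with 5% skim milk-PBS at 37° C for 2-4 h. Test antibodies applied as a 12-point 3-fold series from 13 nM for 1.5-2 h at 37° C. Read-out: HRP secondary (1:5000, 1 h, 37° C), TMB colour for 7-10 min at room temperature, acid stop, absorbance at OD450 nm.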

[6] = target: T6, Fusion protein of extracellular domain of human TIGIT and His-tag (human TIGIT ECD-his) (human); assay: BIAcore
T6 chain: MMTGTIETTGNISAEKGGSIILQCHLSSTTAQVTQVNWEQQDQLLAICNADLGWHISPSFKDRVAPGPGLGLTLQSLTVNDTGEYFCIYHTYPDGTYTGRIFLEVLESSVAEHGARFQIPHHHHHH

[7] = target: T7, Full-length human TIGIT on CHO-K1 cells (CHO-K1 human TIGIT) (human, UniProt Q495A1 22-244); assay: cell binding, CHO-K1 human TIGIT high expression strain
T7 construct: NCBI XP_024309156.1; the entry includes the signal peptide (limits not recoverable); The strain (high, medium, low) is named under assay; also called high expression strain 1D2; medium expression strain 2D10
T7 sequence: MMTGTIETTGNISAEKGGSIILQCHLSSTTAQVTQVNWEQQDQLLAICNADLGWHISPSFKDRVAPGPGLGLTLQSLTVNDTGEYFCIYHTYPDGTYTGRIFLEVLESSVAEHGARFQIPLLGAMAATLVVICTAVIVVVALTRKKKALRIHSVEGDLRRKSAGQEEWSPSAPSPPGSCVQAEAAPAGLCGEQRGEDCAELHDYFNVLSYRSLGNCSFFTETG
Method in brief: (§3)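 Binding was measured by flow cytometry after a 60-minute, 4° C incubation of the antibodies with 2×10⁵ CHO-K1 cells displaying full-length human or cynomolgus monkey TIGIT. Antibody titration: 12 points, threefold serial dilution from 80 nM, in 1% BSA-PBS.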

[8] = target: T8, Full-length cynomolgus monkey TIGIT on CHO-K1 cells (CHO-K1 cynomolgus monkey TIGIT) (cynomolgus monkey); assay: cell binding, CHO-K1 cynomolgus monkey TIGIT
T8 construct: NCBI XP_015300911.1
T8 sequence (chain, as listed by the source limits assumed): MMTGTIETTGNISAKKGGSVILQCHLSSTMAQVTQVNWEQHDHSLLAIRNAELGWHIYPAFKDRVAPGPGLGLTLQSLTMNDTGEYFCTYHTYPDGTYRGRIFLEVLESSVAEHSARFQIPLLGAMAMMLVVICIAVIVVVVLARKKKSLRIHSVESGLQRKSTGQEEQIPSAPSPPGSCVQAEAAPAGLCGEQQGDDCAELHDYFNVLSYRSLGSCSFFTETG
Method in brief: as §3

[9] = target: T6, Fusion protein of extracellular domain …; assay: BIAcore (second series); serves as reference of r34-r37
[10] = target: T9, Fusion protein of extracellular domain of human TIGIT and mouse IgG2a Fc fragment (human TIGIT ECD-mFc) (human); assay: ELISA, human TIGIT ECD-mFc
T9 construct: The entry includes the signal peptide (limits not recoverable) and the mouse IgG2a Fc
T9 chain: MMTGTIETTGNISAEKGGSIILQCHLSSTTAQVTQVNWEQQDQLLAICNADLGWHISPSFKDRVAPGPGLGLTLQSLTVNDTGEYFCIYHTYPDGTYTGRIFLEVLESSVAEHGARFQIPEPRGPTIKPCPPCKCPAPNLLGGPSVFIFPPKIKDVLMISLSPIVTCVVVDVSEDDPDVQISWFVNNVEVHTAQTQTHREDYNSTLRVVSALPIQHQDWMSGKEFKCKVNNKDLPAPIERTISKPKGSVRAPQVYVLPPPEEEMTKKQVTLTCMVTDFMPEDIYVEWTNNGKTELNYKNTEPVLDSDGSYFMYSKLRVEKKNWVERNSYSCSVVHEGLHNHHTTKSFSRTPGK
Method in brief: as §2

[11] = target: T6, Fusion protein of extracellular domain …; assay: BIAcore; KD ratio to TIGIT-CHI-005
[12] = target: T6, Fusion protein of extracellular domain …; assay: BIAcore (second series)

Binder | EC50 (read off the curve) [1] [nM] | IC50 (read off the curve) [2] [nM] | EC50 (read off the curve) [3] [nM] | IC50 [4] | EC50 [5] | Kd [6] [nM] | koff [6] [s⁻¹] | kon [6] [M⁻¹ s⁻¹] | EC50 [7] | EC50 [8] | Fold change vs chimeric antibodies (KD) [9] [fold] | EC50 [10] | Fold change vs chimeric antibodies (KD) [11] [fold] | Kd [12] [nM] | koff [12] [s⁻¹] | kon [12] [M⁻¹ s⁻¹]
PVRIG-A105-H1 (VHH, humanized VHH; also called A105.VH1) VHH: EVQLVESGGGLVQPGGSLRLSCAASGRTFDRHTMSWFRQAPGKEREFVATASRIPGDTYYVDSVKGRFTISRDNAKNSLYLQMNSLRAEDTAVYYCAATSAYCSEVDCYEKGSWYDNWGQGTMVTVSS | ~0.5 | ~1 | ~0.4 | – | – | – | – | – | – | – | – | – | – | – | – | –
TIGIT-005-H2L1 (antibody, V domains shown, Humanized anti-TIGIT antibody) VH: EVQLVQSGAEVKKPGASVKVSCKASGYAFTNYLIEWVRQAPGQRLEWMGVINPGSGGTNYKEKFKGRVTITADKSSSTAYMELSSLRSEDTAVYYCARGEYFFFDYWGQGTTVTVSS VL: DIVMTQSPDSLAVSLGERATINCKASQHVSNGVAWYQHKPGQSPKLLIYSASYRYTGVPDRFSGSGSGTDFTLTISSLQAEDVAVYYCQQHYNTPHTFGGGTKVEIK | – | – | – | 0.321 nM and 0.389 nM | 0.0145 nM and 0.0393 nM | 0.0378 | 0.000161 | 4.26e+06 | 0.0281 nM and 0.0272 nM | 0.0199 nM and 0.047 nM | 1 | 0.0141 nM and 0.0247 nM | 1.37 | 0.0742 | 0.000263 | 3.54e+06
